How the values were obtained:
[1] = molecular target: GST-XIP (D39A) [GST: P08515]
[2] = molecular target: GST-XIP (D25A, D70A, D80A)

B1: caspase-1 (Calbiochem, Co., Ltd.) (protein)
chain: NPAMPTSSGSEGNVKLCSLEEAQRIWKQKSAEIYPIMDKSSRTRLALIICNEEFDSIPRRTGAEVDITGMTMLLQNLGYSVDVKKNLTASDMTTELEAFAHRPEHKTSDSTFLVFMSHGIREGICGKKHSEQVPDILQLNAIFNMLNTKNCPSLKDKPKVIIIQACRGDSPGVVWFKDSVGVSGNLSLPTTEEFEDDAIKKAHIEKDFIAFCSSTPDNVSWRHPTMGSVFIGRLIEHMQEYACSCDVEEIFRKVRFSFEQPDGRAQMPTTERVTLTRCFYLFPGH
- caspase-1 protease assay (SDS-PAGE, western blotting with anti-GST antibody) (GST-XIP (D58A)): fragment located at the higher molecular weight side was detected; fragment located at the lower molecular weight side was detected when using GST-XIP (D58A)
- caspase-1 protease assay (SDS-PAGE, western blotting with anti-GST antibody) (GST-XIP (D25A, D70A)): When using GST-XIP (D25A, D70A) as a substrate, a new fragment other than the aforementioned fragments was detected
- caspase-1 protease assay (SDS-PAGE, western blotting with anti-GST antibody) (GST-XIP (D25A)): fragment located at the higher molecular weight side was detected; fragment located at the lower molecular weight side not detected when using GST-XIP (D25A)
- caspase-1 protease assay (SDS-PAGE, western blotting with anti-GST antibody) [1]: fragment located at the higher molecular weight side was detected; fragment located at the lower molecular weight side was detected when using GST-XIP (D39A)
- caspase-1 protease assay (SDS-PAGE, western blotting with anti-GST antibody) [2]: This fragment was not detected when using GST-XIP (D25A, D70A, D80A) as a substrate
- caspase-1 protease assay (SDS-PAGE, western blotting with anti-GST antibody) (GST [GST: P08515]): GST was not cleaved by caspase-1
- caspase-1 protease assay (SDS-PAGE, western blotting with anti-GST antibody) (GST-XIP (D70A)): fragment located at the higher molecular weight side not detected when using GST-XIP (D70A); fragment located at the lower molecular weight side was detected

Reference: US20060217299
